Data published in IntAct's records for PubMed 27462807.

B1: TP53-binding protein 1 (Homo sapiens), Q12888 (parent)
chain: MDPTGSQLDSDFSQQDTPCLIIEDSQPESQVLEDDSGSHFSMLSRHLPNLQTHKENPVLDVVSNPEQTAGEERGDGNSGFNEHLKENKVADPVDSSNLDTCGSISQVIEQLPQPNRTSSVLGMSVESAPAVEEEKGEELEQKEKEKEEDTSGNTTHSLGAEDTASSQLGFGVLELSQSQDVEENTVPYEVDKEQLQSVTTNSGYTRLSDVDANTAIKHEEQSNEDIPIAEQSSKDIPVTAQPSKDVHVVKEQNPPPARSEDMPFSPKASVAAMEAKEQLSAQELMESGLQIQKSPEPEVLSTQEDLFDQSNKTVSSDGCSTPSREEGGCSLASTPATTLHLLQLSGQRSLVQDSLSTNSSDLVAPSPDAFRSTPFIVPSSPTEQEGRQDKPMDTSVLSEEGGEPFQKKLQSGEPVELENPPLLPESTVSPQASTPISQSTPVFPPGSLPIPSQPQFSHDIFIPSPSLEEQSNDGKKDGDMHSSSLTVECSKTSEIEPKNSPEDLGLSLTGDSCKLMLSTSEYSQSPKMESLSSHRIDEDGENTQIEDTEPMSPVLNSKFVPAENDSILMNPAQDGEVQLSQNDDKTKGDDTDTRDDISILATGCKGREETVAEDVCIDLTCDSGSQAVPSPATRSEALSSVLDQEEAMEIKEHHPEEGSSGSEVEEIPETPCESQGEELKEENMESVPLHLSLTETQSQGLCLQKEMPKKECSEAMEVETSVISIDSPQKLAILDQELEHKEQEAWEEATSEDSSVVIVDVKEPSPRVDVSCEPLEGVEKCSDSQSWEDIAPEIEPCAENRLDTKEEKSVEYEGDLKSGTAETEPVEQDSSQPSLPLVRADDPLRLDQELQQPQTQEKTSNSLTEDSKMANAKQLSSDAEAQKLGKPSAHASQSFCESSSETPFHFTLPKEGDIIPPLTGATPPLIGHLKLEPKRHSTPIGISNYPESTIATSDVMSESMVETHDPILGSGKGDSGAAPDVDDKLCLRMKLVSPETEASEESLQFNLEKPATGERKNGSTAVAESVASPQKTMSVLSCICEARQENEARSEDPPTTPIRGNLLHFPSSQGEEEKEKLEGDHTIRQSQQPMKPISPVKDPVSPASQKMVIQGPSSPQGEAMVTDVLEDQKEGRSTNKENPSKALIERPSQNNIGIQTMECSLRVPETVSAATQTIKNVCEQGTSTVDQNFGKQDATVQTERGSGEKPVSAPGDDTESLHSQGEEEFDMPQPPHGHVLHRHMRTIREVRTLVTRVITDVYYVDGTEVERKVTEETEEPIVECQECETEVSPSQTGGSSGDLGDISSFSSKASSLHRTSSGTSLSAMHSSGSSGKGAGPLRGKTSGTEPADFALPSSRGGPGKLSPRKGVSQTGTPVCEEDGDAGLGIRQGGKAPVTPRGRGRRGRPPSRTTGTRETAVPGPLGIEDISPNLSPDDKSFSRVVPRVPDSTRRTDVGAGALRRSDSPEIPFQAAAGPSDGLDASSPGNSFVGLRVVAKWSSNGYFYSGKITRDVGAGKYKLLFDDGYECDVLGKDILLCDPIPLDTEVTALSEDEYFSAGVVKGHRKESGELYYSIEKEGQRKWYKRMAVILSLEQGNRLREQYGLGPYEAVTPLTKAADISLDNLVEGKRKRRSNVSSPATPTASSSSSTTPTRKITESPRASMGVLSGKRKLITSEEERSPAKRGRKSATVKPGAVGAGEFVSPCESGDNTGEPSALEEQRGPLPLNKTLFLGYAFLLTMATTSDKLASRSKLPDGPTGSSEEEEEFLEIPPFNKQYTESQLRAGAGYILEDFNEAQCNTAYQCLLIADQHCRTRKYFLCLASGIPCVSHVWVHDSCHANQLQNYRNYLLPAGYSLEEQRILDWQPRENPFQNLKVLLVSDQQQNFLELWSEILMTGGAASVKQHHSSAHNKDIALGVFDVVVTDPSCPASVLKCAEALQLPVVSQEWVIQCLIVGERIGFKQHPKYKHDYVSH

Variants of: B1
Conditions: with H2BC10, P62807

| effect of a mutation on the interaction | Variant |
| --- | --- |
| decreasing interaction | K1628C |

Variants of: B1
Conditions: with H2BC10, P62807
Remark: another data set of the same source

| effect of a mutation on the interaction | Variant |
| --- | --- |
| with no effect | T1609C |
